Patent US20230383009A1 (CARIBOU BIOSCIENCES, published 2023)

Key:
[1] = biological target: T1, extracellular ROR1 protein (human, UniProt Q01973 30-406); assay: ELISA
T1 construct: extracellular domain

[2] = biological target: T2, ROR1 on human cancer cell lines (HepG2, MDA231, HT-29, SKOV-3) (human, UniProt Q01973 30-937); assay: flow cytometry (FACS) on cancer cell lines
T2 construct: whole, on cells; Endogenous ROR1 of tumour cell lines, not transfected cells; also called ROR1-positive cells; ROR1-expressing cell line SKOV-3
T2 sequence (Q01973 30-937): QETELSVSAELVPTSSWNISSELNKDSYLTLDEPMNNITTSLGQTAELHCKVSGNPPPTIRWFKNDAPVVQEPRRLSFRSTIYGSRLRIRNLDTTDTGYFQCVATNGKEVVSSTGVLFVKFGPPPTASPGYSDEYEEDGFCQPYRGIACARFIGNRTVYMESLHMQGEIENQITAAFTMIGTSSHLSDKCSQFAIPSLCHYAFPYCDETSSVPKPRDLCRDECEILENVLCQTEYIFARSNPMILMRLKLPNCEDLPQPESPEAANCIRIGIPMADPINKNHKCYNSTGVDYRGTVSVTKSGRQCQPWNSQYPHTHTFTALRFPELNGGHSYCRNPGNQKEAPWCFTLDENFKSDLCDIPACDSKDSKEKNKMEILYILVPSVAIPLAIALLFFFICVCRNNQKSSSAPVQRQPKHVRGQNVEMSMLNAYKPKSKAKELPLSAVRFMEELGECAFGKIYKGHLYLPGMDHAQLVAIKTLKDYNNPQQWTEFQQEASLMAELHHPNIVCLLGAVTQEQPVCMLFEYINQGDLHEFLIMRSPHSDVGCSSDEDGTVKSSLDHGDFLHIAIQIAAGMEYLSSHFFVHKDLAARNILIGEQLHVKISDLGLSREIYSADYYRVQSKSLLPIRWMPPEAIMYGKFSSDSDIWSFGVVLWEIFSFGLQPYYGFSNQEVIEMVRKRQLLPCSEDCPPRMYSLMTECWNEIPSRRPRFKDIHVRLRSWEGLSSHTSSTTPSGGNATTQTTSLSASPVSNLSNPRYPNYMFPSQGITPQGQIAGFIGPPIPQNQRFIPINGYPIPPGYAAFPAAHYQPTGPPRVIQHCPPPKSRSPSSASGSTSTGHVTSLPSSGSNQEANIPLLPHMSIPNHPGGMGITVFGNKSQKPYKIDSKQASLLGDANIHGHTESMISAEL
Source text: Normal keratinocytes were used as a negative control (FIG. 4). (MFI: […] compared to the isotype).

[3] = biological target: T3, ROR1 extracellular domain fused to human Fc (hFc) protein (human, UniProt Q01973 30-406); assay: Western blot, anti-ROR1 scFv-mouse Fc fusion as primary antibody, anti-mouse IgG-HRP as secondary
T3 construct: extracellular domain; also called ROR1-human Fc fusion protein; human ROR1 antigen; not shown: human Fc (hFc)
T3 sequence (Q01973 30-406): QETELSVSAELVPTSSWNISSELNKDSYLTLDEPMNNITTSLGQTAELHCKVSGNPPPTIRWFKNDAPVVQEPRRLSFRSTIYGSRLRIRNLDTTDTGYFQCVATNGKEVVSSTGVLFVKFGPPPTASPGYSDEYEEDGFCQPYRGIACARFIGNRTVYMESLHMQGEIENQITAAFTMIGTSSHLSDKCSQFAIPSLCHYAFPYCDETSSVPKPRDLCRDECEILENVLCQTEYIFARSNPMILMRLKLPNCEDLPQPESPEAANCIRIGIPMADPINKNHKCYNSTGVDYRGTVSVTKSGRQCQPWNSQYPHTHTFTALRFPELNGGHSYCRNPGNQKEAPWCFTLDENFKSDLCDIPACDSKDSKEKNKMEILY
Source text: In this example, we generated a mouse monoclonal anti-ROR1 antibody using standard hybridoma technology. The mouse anti-ROR1 antibody (IgG1 type) detected extracellular ROR1 protein by ELISA (data not shown). We sequenced this hybridoma clone 2H6 and generated an scFv using VH and VL (see further in Example 2). […] The ROR1-human Fc fusion protein was detected with an antibody directed against the human Fc domain.

T1 sequence (Q01973 30-406): as above

binding result [1]	binding result [2]	binding result [3]	Binder
binds	binds		mouse monoclonal anti-ROR1 antibody, hybridoma clone 2H6 (antibody, V domains shown, Hybridoma antibody, mouse IgG1 type; also called mouse anti-ROR1 antibody (IgG1 type); mouse anti-ROR1 monoclonal antibody) VH: VKLVESGGGLVKPGGSLKLSCAASGFTFSTYAMSWVRQTPEKRLEWVASISSGGNTYYPDSVKGRFTISRDNARHILYLQMSSLRSEDTAMYYCARDSYYFGNSVYYAMDYWGQGTSVTVSS VL: DIKMTQSPSSMYASLGERVTITCKASQDINSYFSWFQQKPGKSPKTLIYRANRLVDGVPSRFSGSGSGQDYSLTISSLEYEDMGIYYCLQYDEFPYTFGGGTKLEIKR
		binds	anti-ROR1 scFv-mouse Fc fusion (scFv of clone 2H6) (Fc fusion, Used as the primary antibody in the Western blot. scFv is VH-(G4S)3-VL; The mouse Fc part is not described; also called anti-ROR1 scFv (mouse clone 2H6); not shown: mouse Fc) scFv: VKLVESGGGLVKPGGSLKLSCAASGFTFSTYAMSWVRQTPEKRLEWVASISSGGNTYYPDSVKGRFTISRDNARHILYLQMSSLRSEDTAMYYCARDSYYFGNSVYYAMDYWGQGTSVTVSSGGGGSGGGGSGGGGSDIKMTQSPSSMYASLGERVTITCKASQDINSYFSWFQQKPGKSPKTLIYRANRLVDGVPSRFSGSGSGQDYSLTISSLEYEDMGIYYCLQYDEFPYTFGGGTKLEIKR
